From a protein production outcome set (Wang et al. 2014)

Test: label from the status in PepcDB records
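Further: failed if final PepcDB status was selected cloned or expressed and not failed if soluble or beyond.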

Sequence	protein production
MSNVIASLEKVLLPFAVKIGKQPHVNAIKNGFIRLMPLTLAGAMFVLINNVFLSFGEGAFFYSMGIRLDASTIETLNGLKGIGGNVYNGTLGIMSLMAPFFIGMALAEERKVDALAAGLLSVAAFMTVTPYSVGEAYAVGANWLGGANIISGIIIGLVVAEMFTFIVRRNWVIKLPDSVPASVSRSFSALIPGFIILSIMGIIAWALSNYGSNFHQIIMDTISTPLASLGSVVGWAYVIFVPLLWFFGIHGSLALTALDSGIMTPWALENISIYQQYGSVDAALEAGKTFHIWAKPMLDSYIFLGGSGATLGLIIAIFLASRRADYRQVAKLALPSGIFQINEPILFGLPIIMNPVMFIPFILVQPILAAITLVAYYLGIIPPITNIAPWTMPTGLGAFFNTNGSVAALLVALFNLAVATLIYLPFVVVANKAQNAIEQEESEEDIANALKF	not failed
MLSTSRSRFIRNTNESGEEVTTFFDYDYGAPCHKFDVKQIGAQLLPPLYSLVFIFGFVGNMLVVLILINCKKLKCLTDIYLLNLAISDLLFLITLPLWAHSAANEWVFGNAMCKLFTGLYHIGYFGGIFFIILLTIDRYLAIVHAVFALKARTVTFGVVTSVITWLVAVFASVPGIIFTKCQKEDSVYVCGPYFPRGWNNFHTIMRNILGLVLPLLIMVICYSGILKTLLRCRNEKKRHRAVRVIFTIMIVYFLFWTPYNIVILLNTFQEFFGLSNCESTSQLDQATQVTETLGMTHCCINPIIYAFVGEKFRRYLSVFFRKHITKRFCKQCPVFYRETVDGVTSTNTPSTGEQEVSAGL	failed
MAHHHHHHMADQNPDLKVEEALKGADIKLLLIDFDGTLFVDKDIKVPSENIDAIKEAIEKGYMVSICTGRSKVGILSAFGEENLKKMNFYGMPGVYINGTIVYDQIGYTLLDETIETDVYAELISYLVEKNLVNQTIFHRGESNYVTEDNKYADFLQKMYSENRSIIIRHNEMLKYRTMNKLMIVLDPSESKTVIGNLKQKFKNKLTIFTTYNGHAEVTKLGHDKYTGINYLLKHYNISNDQVLVVGDAENDIAMLSNFKYSFAVANATDSAKSHAKCVLPVSHREGAVAYLLKKVFDLKK	not failed
MNAVLVAVAIMLLLSLLRVQVIVAIIVGALTGGLIGGLGISETINTFTTGLGNSAPIALSYAMLGGFAISLSKTGLPDAMIQTALKWIGNEQDTKKQVYSKILILFIILTMACFSQNVIPVHIAFIPILIPALLKVLNELRVDRRLVTCIITFGLITPYMWIPAGFGKIYHDVLQTNAAQSGLTFDVTLIPKAMTIPAIGMIIGLCVAVFITYRKPRTYETEQIHTTENEIVPYTKRSITFGLLSIIATLTVQLTTESMIFGALAGIIVLSVSGSLPLKEADAILTSGMRMMSFIGFVMIAAAGFGAVLRKTGHVESLVQTSAHIIGNNKPLAAFLMLVIGLLVTMGIGSSFSTIPILTTIFVPLCIQLGFSPMATIAIIGTAGALGDAGSPASDSTLGPTSGLNADGQHHHIWDTCVPTFLHYNIPLLIFGFIAAITL	failed
MMEDDGQPRTLYVGNLSRDVTEVLILQLFSQIGPCKSCKMITEHTSNDPYCFVEFYEHRDAAAALAAMNGRKILGKEVKVNWATTPSSQK	not failed
MKMVDELKGNLNSFLILLGIFSFLQFSFKQSFMFPSILPLNIPDSNLLLVIGNISFYFFFVFLLIVSMILSLTYKSLIPLTIILTISPFITLIPNYENSFLLYSLEIAILILGLASTIEGLIKSSLLSILLIPTLVLVNLGIYASILLNIFHNALFISYLTIYLISIAGYLAYVISWGKIKSLRNYIAISVGLLSMIPFIFFENIISHNRYLEILMNMILPSTLGITLYNPYHITLLVMALGLSTMGIVTSLIKGNVSSGVGYFLIITTVFLGIDGFSLLIYMLTPIIGFLVITSSEIESKRRLIDIISPTRNG	failed
MAGALITASAACAEDAPDFRLDLDTGGHTARIARLAFTPDGEDIVSASDDKTIRIWDWQSGVTLRTIRGYLGNGSDGKIFAVSVSPDGKTIAAGGYFGAGLGDKPPYGDIRLFDFATGKMKAVLRAADYATYDLAFSPDGKTLAAGGGDGMVYLWRLDDKSATGWTLDKKLDADSWHIDKLAFAAAGTRLAATTTDNGIRLWDVAKGEEIALPDEAEPLRDVSVLALAISQDGSLFATGSKDGQVQLWRAADGTLVHAMPKQDFLIGSLTFAKGSRLVASCGYRCADKHRSIVWNTDSGEKLLDYSGHDGTVYASAANADGSLVATAGGTRNAIQVWDPATGERKALLQGVGEPVTAIGIDAANGIIAWGNTNPCPERVACPEQLGALDKRLELPTTERFFDDPQPLTEPGSFARAAQSDGEWSLHATKGGKDALENAVLEIANGGKVVRSIENDATNGFAHSAFTLIDNGLGLITGGNDGTLLEYKAATARVSGEFTGHTGEINAMAASEKAGLLVTGSADQTLRLWNLKTHELIVSMFFAGPQWIAWMPQGYYYSSDEGDKLIGWHVNQGRDHEGRFIRAGQLKKYLWSPEMVRRAIILRSAKQAVKEMRPGVDNELQKLLQRKPPEFGVRLADDQSKVRDGYVAVEITGAKEAGTDVAGFSILSNSRNVGDIATRSAEGDKTTVEVPVENGQNTIRITGTNEYGYLTERSVTALARKTEKAEAKGKLYVAVIGVDKYPFLTDACSGHACDLRYPVDDATEFLEVVAQKSAPLFSSMETLVLVNREALDESPDKAKQTYTVASADNIMEPDSHTIDDQLADFLDRPGEHDTTIVFVAGHGINIDEDYYFIPTDGRKQDADRWKRSSLVDWGDIQKSVERAKGMRFMLLDTCHAANAFNPRLEKDAQDARIVVFSATAANNTAAELPELGHGVFTYSILEGLRGKARTSDGGITLFGLADFISHEVVRLTASKQKPFYYVGGVENIVLAEP	failed
MWITQETWLKALPWNKKRYRSQIMEVICKHYTPLDIASQAIRTCWQSFEYSDDGGCKDKELIHRVGNIFRHSSTLEHLYYNFEIKGLSRGALQELSRHRIASLSVKSSRYTLRELKEVESFLPLNETNLERAKEFLVFVDNEKVNAMSVLALENLRILLSEHNIKNDLAKYAMPESYKTHLAYSINARSLQNFLTLRSSNKALKEMQDLAKALFDALPGEHQYLFEDCLKH	failed
MKLFKRISFILIVLYILIVPVQHVSAHAYLENSNPADQSHIKTAPEKVTLVFNEEIEADFPLIEVKDSSGKRVETGKTSVSKKNNHMVEASLPAELKADVYSVSWRVVSADGHAVTGIISFKLGDTKATFQESEVPSSGADLQISSIQKAILYIGFSLFIGVLVFGLGLYPRKEQISEKISGRLKKVTWIALALLGVALFMQLFVQTSITTGVSISESFGPSKLAAFLTTKTGYIWISEFIVWLLLAIFTIMMFFKNKQWSWFALLTESALIGYLIFAKAQNGHAAASADKIVSITADMLHMIAASVWVGGILVLLFVLPKTGKAREIWSRFAIVAIIAVASILVSGLLMAVMNIGQMSNLFTTNYGKILLFKIGLFLLMALLGLGHYIYLKLKNKKLPFKTILIELIIGTIILIVASVLTNVQTPPPPAPKAFDETIAAKGENAKINLRVEPATVGQNQFIITFTSADGATKTDFEQVTITTKSTKTDEKATFQAKLANENQYFAEGLYINQTGKWEITVHGLTKDFTDINQTFTTNITQ	failed
MKLGFIGFGEAASAIASGLRQAGAIDMAAYDAASAESWRPRAEELGVSCKASVAEVAGECDVIFSLVTAQAALEVAQQAGPHLCEGALYADFTSCSPAVKRAIGDVISRHRPSAQYAAVAVMSAVKPHGHRVPLVVDGDGARRFQAAFTLYGCRIEVLDGEVGGAALLKMCRSAVLKGLEALFLEALAAAEKMGLADRVLASLDASFPEHHLRDLALYLVERNLEHADRRAHELGEVAATLCSVGVEPLVAEAGYRRLTRVAQVRAALKQRPGDVRAWLRSLANAEDA	not failed
MGNKITVEVTVYAAIEKVWKYWNEPAHIMKWCQASPEWHVPAAQNDLKAGGTFTTTMAAKDGSMSFDFGGVYDQVKTNDLIEYTIGDGRKVRIVFTHTGDTTNIVESFDPEETNPRELQQSGWQAILNSFKSYTENNLEHHHHHH	not failed
MDLHESESRTHVLSTDGDDGYIDMEVNLSSSSSSSTSSSSFFSFPVTSSPPQSREFEFQMCSSAVASGESTTSPADELFYKGQLLPLHLPPRLKMVQKLLLASSSSTAATETPISPRAAADVLSPRRFSSCEIGQDENCFFEISTELKRFIESNENHLGNSWSKKIKHSSITQKLKASRAYIKALFSKQACSDSSEINPRFKIEPSKVSRKKNPFVNSENPLLIHRRSFSGVIQRHSQAKCSTSSSSSSSASSLSSSFSFGSNGSLDLQTLMRSSNASDNSIEGAIEHCKQSFTTRKSNVTESELCSSRTSVSTCGDLDKD	failed
MIKTEKNQTSKVTDEVDQLVQRSKKALAILKSYTQAQIDDLCEKVAVAALDNHMKLAKLAVEETGRGVVEDKAIKNIYASEYIWNSMRHDKTVGVIKEDDEEQLMEIAEPVGIVAGVTPVTNPTSTTVFKTLISLKGRNTIVFGFHPQAQKCSSAAADVMREAIKAAGGPADAVLYIEHPSIEATDALMHHTDVATILATGGPSMVTAAYSSGKPALGVGPGNGPTYVEKTADIKQAVNDIVLSKTFDNGMICASE	failed
QLTVRRVAEHDLAALSEKAGGPVSIGTRDRLQVVYVDTIHDRGNNGAKPDIGSSRPLLHTAMGRALLYTFDAAERELLMPLLLEQEPQQGDAARAALEEAFAQIARTGFCTSYGSWRPELAGLAAPLRYRAGDLPFAINLTLPIDAVKDGRAEQEFGPYLARLAQSIDRRLGVDV	failed
YDDEDYQAEQDRREEQRRAAIAQTGVEVIPVHGVLVSRGSHLNACETMTSYEGLRAALNKAITDPMVEHIVLDIDSPGGSAVGAFELAADIRAATKIKPITGLVNFMAYSGGYLIASACTEVVVSLTSGVGSIGVVASHMDRSKMIEGMGVKVTTVFAGAHKNDLSPNEPITEQSLQVLNEVVQESYQLFTTHVAEYRGRDVADIIATEAACYRGSSAIAIGLADRLESPQ	failed
MRVNILMSTYNGEKFVADQIESIQKQTYTDWNLIIRDDGSSDRTCEIVDDFVSKDNRIKLIRAENVGVIKSFHELVTDSNNADFYFFADQDDYWLPEKLSVMLEETKKHDNSKPVMYYTDLKVTDRNLNVTSESMIRGQSDHANTKLVQELTENTVTGGASMINHELAQLWQSTNDIIMHDWYLAIVAAALGELVYIDQPTHLYRQHDSNVLGARTLSKRIKKWIHPNLWFEKYWWLITASQKQAQKLLTENLSLMSEDDKALVSDYVNILKQPKAERRQILDRYNLRKNKNYHTSIFRTLIITKFAYKGKKTNEFLQP	failed
MKPLEQAINDNKKKKRFNFRMPGAFMILFILTVVAVIATWIIPAGAYSKLSYEPSSQELKIVNPHHQVKKVPGTQKELDRLGVKIKIEQFKSGAINKPVSIPNTYERLKQHPAGLDQITSSMVKGTIEAVDIMVFILVLGGLIGVVQASGSFESGLLALTQKTKGHEFMLIAFVSILMIIGGTLCGIEEEAVAFYPVLVPIFIALGYDSIVSVGAIFLASSVGSTFSTINPFSVVIASNAAGTTFTDGLYWRIGACIIGAIFVISYLFWYCKKIKKDPKSSYSYEDKAAFEKQWSVLHDDGSSEFTLRKKIILTLFVLPFPIMVWGVMTQGWWFPVMASVFLIFTIIIMFIAGTGQYGLGEKGTVDAFVNGASSLVGVSLIIGLARGINLVLNKGMISDTILHFSSSIVQHMSGPLFIIVLLFIFFCLGFIVPSSSGLAVLSMPIFAPLADTVGIPRFVIVTTYQFGQYAMLFLAPTGLVMATLQMLNMRYSHWLRFVWPVVAFVLIFGGGLLITQVLIYS	failed
MSDEGPGTGPGNGLGEKGDTSGPEGSGGSGPQRRGGDNHGRGRGRGRGRGGGRPGAPGGSGSGPRHRDGVRRPQKRPSCIGCKGTHGGTGAGAGAGGAGAGGGGRGRGGSGGRGRGGSGGRRGRGRERARGGSRERARGRGRGRGEKRPRSPSSQSSSSGSPPRRPPPGRRPFFHPVGEADYFEYHQEGGPDGEPDVPPGAIEQGPADDPGEGPSTGPRGQGDGGRRKKGGWFGKHRGQGGSNPKFENIAEGLRALLARSHVERTTDEGTWVAGVFVYGGSKTSLYNLRRGTALAIPQCRLTPLSRLPFGMAPGPGPQPGPLRESIVCYFMVFLQTHIFAEVLKDAIKDLVMTKPAPTCNIRVTVCSFDDGVDLPPWFPPMVEGAAAEGDDGDDGDEGGDGDEGEEGQELEHHHHHH	failed
